Earlier results on one substance are cited in publication PMC5399307.

For the series, the target named is ezrin FERM (Homo sapiens) (UniProt P15311).
Sequence of UniProt P15311 (P15311 1-299): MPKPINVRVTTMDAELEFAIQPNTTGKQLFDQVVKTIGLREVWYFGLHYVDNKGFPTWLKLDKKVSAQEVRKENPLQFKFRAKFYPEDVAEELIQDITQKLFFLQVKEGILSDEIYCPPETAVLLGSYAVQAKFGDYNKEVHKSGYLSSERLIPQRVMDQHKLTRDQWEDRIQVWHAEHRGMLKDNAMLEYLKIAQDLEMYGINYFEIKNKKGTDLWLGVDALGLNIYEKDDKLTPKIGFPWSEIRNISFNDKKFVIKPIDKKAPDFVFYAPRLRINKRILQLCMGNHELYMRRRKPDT

Consider NHERF1 (from UniProt O14745), for which the Kd is 51 nM.

As a reminder, the Kd is the concentration at which binding is half-saturated.
